# Test results: patent US20110086797
# Biological target: elongation factor G (EF-G) of B. subtilis, P80868
# Sequence (P80868 2-692): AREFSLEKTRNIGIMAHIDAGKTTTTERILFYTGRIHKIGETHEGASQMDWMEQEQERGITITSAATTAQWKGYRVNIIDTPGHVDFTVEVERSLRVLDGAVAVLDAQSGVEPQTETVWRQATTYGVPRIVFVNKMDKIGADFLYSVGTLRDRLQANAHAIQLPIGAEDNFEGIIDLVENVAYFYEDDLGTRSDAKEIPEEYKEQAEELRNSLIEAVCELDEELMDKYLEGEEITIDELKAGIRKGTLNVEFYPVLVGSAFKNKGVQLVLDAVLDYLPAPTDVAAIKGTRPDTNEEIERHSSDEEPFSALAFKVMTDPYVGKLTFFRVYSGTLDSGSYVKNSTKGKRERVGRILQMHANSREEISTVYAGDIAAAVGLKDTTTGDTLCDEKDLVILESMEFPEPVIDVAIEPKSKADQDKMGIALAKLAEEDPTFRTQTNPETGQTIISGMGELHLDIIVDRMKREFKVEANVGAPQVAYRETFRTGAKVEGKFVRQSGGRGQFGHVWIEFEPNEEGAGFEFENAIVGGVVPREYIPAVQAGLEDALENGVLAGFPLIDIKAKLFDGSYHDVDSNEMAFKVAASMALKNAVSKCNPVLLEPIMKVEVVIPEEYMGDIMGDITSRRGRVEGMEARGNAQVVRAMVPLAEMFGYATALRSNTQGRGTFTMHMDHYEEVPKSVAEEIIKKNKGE
protein,measurement,value
PrkC Ser/Thr kinase of B. subtilis (protein) MLIGKRISGRYQILRVIGGGGMANVYLAEDIILDREVAIKILRFDYANDNEFIRRFRREAQSASSLDHPNIVSIYDLGEEDDIYYIVMEYVEGMTLKEYITANGPLHPKEALNIMEQIVSAIAHAHQNQIVHRDIKPHNILIDHMGNIKVTDFGIATALSSTTITHTNSVLGSVHYLSPEQARGGLATKKSDIYALGIVLFELLTGRIPFDGESAVSIALKHLQAETPSAKRWNPSVPQSVENIILKATAKDPFHRYETAEDMEADIKTAFDADRLNEKRFTIQEDEEMTKAIPIIKDEELAKAAGEKEAEVTTAQENKTKKNGKRKKWPWVLLTICLVFITAGILAVTVFPSLFMPKDVKIPDVSGMEYEKAAGLLEKEGLQVDSEVLEISDEKIEEGLMVKTDPKADTTVKEGATVTLYKSTGKAKTEIGDVTGQTVDQAKKALKDQGFNHVTVNEVNDEKNAGTVIDQNPSAGTELVPSEDQVKLTVSIGPEDITLRDLKTYSKEAASGYLEDNGLKLVEKEAYSDDVPEGQVVKQKPAAGTAVKPGNEVEVTFSLGPEKKPAKTVKEKVKIPYEPENEGDELQVQIAVDDADHSISDTYEEFKIKEPTERTIELKIEPGQKGYYQVMVNNKVVSYKTIEYPKDE,"EF-G phosphorylation (immunoprecipitation with anti-EF-G, western blot with anti-phosphothreonine antibody)","EF-G (as identified by probing the same fractions with the α-EF-G) phosphorylation increased following exposure to cell free supernatant (FIG. 24D). In contrast, no change in phosphorylation was observed in spores lacking PrkC."
